Assays:
Test in all cases: purified protein, by the assay type
Design in all cases: fluorogenic ester hydrolysis, fluorescein release, Michaelis-Menten fit of initial rates
[1] = substrate: COCC(=O)OCOc1ccc2c(c1)Oc1cc(OCOC(=O)COC)ccc1C21OC(=O)c2ccccc21
Protocol: (§1) The enzyme kinetic activity of LipN was assayed via the hydrolysis of the fluorogenic substrates (Figure 1) in accordance with past kinetic analysis of mycobacterial serine hydrolases.[37],[38],[40],[66],[67] Kinetic assays were run in triplicate on black 96-well plates in a Synergy H1 Hybrid Reader (BioTek). Fluorogenic ester substrates (10 mM in DMSO) were diluted to a starting concentration of 100 μM in PBS containing acetylated BSA (Sigma; 0.1 mg/mL). Eight serial dilutions (1:1; 120 μL into 240 μL total volume) of each substrate were made using PBS–BSA. Fluorogenic substrate dilutions (95 μL) were then transferred to opaque 96-well microplate (Corning, Lowell, MA). Reactions were initiated by quickly adding enzyme (5 μL, 3.0 nM final concentration) to each assay well, mixed, and the fluorescence counts measured every 26–30 s for 4.5 min with a BioTek H1 Synergy multimode plate reader (Biotek Instruments; Winooski, VT) at ambient temperature. The instrument measured relative fluorescence through excitation at λ = 485 nm and emission at λ = 520 nm. The fluorescence change was converted to molar concentrations using a fluorescein standard curve (300–2.3 nM), whose fluorescence was measured simultaneously. The initial rates of the enzyme-catalyzed reactions were measured in triplicate and plotted versus fluorogenic substrate concentration. […] (A) Activation of fluorogenic ester substrates by MmLipN. Each of the substrates is composed of diacyloxymethyl ether fluorescein with varying R-groups. The differing R-groups have been organized into classes and colored based on chemical functionality. All of the substrates were synthesized as described previously.[38],[43] Substrates 6, 10–11, 14–15, 20, 23–30, and 33 were newly synthesized for this characterization of MmLipN. Detailed synthetic characterization is provided in the Supporting Information. (B) Global comparison of the catalytic specificity (kcat/KM) of MmLipN against each of the 33 substrates with ester classes labeled. Catalytic efficiency values (kcat/Km) are given ± SD based on at least three independent kinetic replicates. (C, D) Kinetic activity of MmLipN against high-activity ester substrates 1 (black circles), 7 (blue squares), and 20 (red diamonds) and low-activity ester substrates 12 (green circles), 16 (red squares), 27 (purple diamonds), and 31 (orange squares). Low- and high-activity substrates display classic Michaelis–Menten kinetics with MmLipN and activity above background hydrolysis rates. Traces colored based on ester classification from (A, B). All measurements were completed in at least triplicate and shown ± SD.

[2] = substrate: N#CC1(C(=O)OCOc2ccc3c(c2)Oc2cc(OCOC(=O)C4(C#N)CC4)ccc2C32OC(=O)c3ccccc32)CC1
Protocol: as §1

[3] = substrate: CCCC(=O)OCOc1ccc2c(c1)Oc1cc(OCOC(=O)CCC)ccc1C21OC(=O)c2ccccc21
Protocol: as §1

[4] = substrate: CCC(=O)OCOc1ccc2c(c1)Oc1cc(OCOC(=O)CC)ccc1C21OC(=O)c2ccccc21
Protocol: as §1

[5] = substrate: O=C1OC2(c3ccc(OCOC(=O)C4(c5ccccn5)CC4)cc3Oc3cc(OCOC(=O)C4(c5ccccn5)CC4)ccc32)c2ccccc21
Protocol: as §1

[6] = substrate: CC(C)C(=O)OCOc1ccc2c(c1)Oc1cc(OCOC(=O)C(C)C)ccc1C21OC(=O)c2ccccc21
Protocol: as §1

[7] = substrate: N#CCC(=O)OCOc1ccc2c(c1)Oc1cc(OCOC(=O)CC#N)ccc1C21OC(=O)c2ccccc21
Protocol: as §1

[8] = substrate: O=C1OC2(c3ccc(OCOC(=O)C4(c5ccccc5)CC4)cc3Oc3cc(OCOC(=O)C4(c5ccccc5)CC4)ccc32)c2ccccc21
Protocol: as §1

[9] = substrate: COCCOCCC(=O)OCOc1ccc2c(c1)Oc1cc(OCOC(=O)CCOCCOC)ccc1C21OC(=O)c2ccccc21
Protocol: as §1

[10] = substrate: CC1(C(=O)OCOc2ccc3c(c2)Oc2cc(OCOC(=O)C4(C)CC4(Cl)Cl)ccc2C32OC(=O)c3ccccc32)CC1(Cl)Cl
Protocol: as §1

[11] = substrate: CC1(C)CC1C(=O)OCOc1ccc2c(c1)Oc1cc(OCOC(=O)C3CC3(C)C)ccc1C21OC(=O)c2ccccc21
Protocol: as §1

B1: MmLipN (LipN from M. marinum) (Mycobacterium marinum M) (protein)
chain: MTNSLPGETDLHPETVHATMSWLSRVQNTVTVVGAKVIPWVPDVAKRLITRGRSVIIDGNTLDPALQLMLSGMRVVGLDGLVIDDDLAASRAHMREAMLGFPGPQIHVDVEELTLPGPAGDISARHYRPPGDAAAPLLVFYHGGGWALGDLDTHDAVCRLTCRDAGIHVLAIDYRLSPEDRAPAAIDDAFAAFEWAHAHAAELGALPGRVAVGGDSAGGNLAAVVSQLARDSGGPAPIFQWLIYPRTDFAGRTRSASLFARGFLLTKRDIDWFHSQYLKGSGIEPTDPRVSPLRAESLAGLAPALIAVAGFDPLRDEGENYATALRAAGTPVDLRAMGSLTHGFLNLFPLGGGCAAATSELISALRAHLTRV
notes: E. coli LOBSTR (DE3); Ni-NTA
- Km [1]: 2.6 ± 1.1 µM
- kcat [1]: 0.11 ± 0.12 s⁻¹
- kcat/Km [1]: 40000 ± 25000 M⁻¹ s⁻¹
- Km [2]: 1.7 ± 1.1 µM
- kcat [2]: 0.0012 ± 0.0018 s⁻¹
- kcat/Km [2]: 670 ± 590 M⁻¹ s⁻¹
- Km [3]: 6.2 ± 0.1 µM
- kcat [3]: 0.062 ± 0.029 s⁻¹
- kcat/Km [3]: 10000 ± 5000 M⁻¹ s⁻¹
- Km [4]: 4.2 ± 0.5 µM
- kcat [4]: 0.18 ± 0.06 s⁻¹
- kcat/Km [4]: 42000 ± 15000 M⁻¹ s⁻¹
- Km [5]: 0.049 ± 0.027 µM
- kcat [5]: 2.6e-05 ± 2e-05 s⁻¹
- kcat/Km [5]: 530 ± 250 M⁻¹ s⁻¹
- Km [6]: 9.5 ± 2.2 µM
- kcat [6]: 0.017 ± 0.014 s⁻¹
- kcat/Km [6]: 1800 ± 800 M⁻¹ s⁻¹
- Km [7]: 3.1 ± 0.6 µM
- kcat [7]: 0.015 ± 0.008 s⁻¹
- kcat/Km [7]: 4900 ± 1400 M⁻¹ s⁻¹
- Km [8]: 13 ± 8 µM
- kcat [8]: 5.8e-05 ± 0.00014 s⁻¹
- kcat/Km [8]: 4.4 ± 5.4 M⁻¹ s⁻¹
- Km [9]: 21 ± 4 µM
- kcat [9]: 0.0005 ± 0.0004 s⁻¹
- kcat/Km [9]: 26 ± 11 M⁻¹ s⁻¹
- Km [10]: 0.87 ± 1.1 µM
- kcat [10]: 1.1e-05 ± 3e-05 s⁻¹
- kcat/Km [10]: 12 ± 19 M⁻¹ s⁻¹
- Km [11]: 1.7 ± 1.1 µM
- kcat [11]: 0.0011 ± 0.0018 s⁻¹
- kcat/Km [11]: 660 ± 590 M⁻¹ s⁻¹

From article PMC10099132, “Sequence and Structural Motifs Controlling the Broad Substrate Specificity of the Mycobacterial Hormone-Sensitive Lipase LipN” (ACS Omega, 2023)
